Data as given in patent US20170101472A1 (Regeneron, published 2017).
Residue numbers refer to the chain shown, from its start. Names and notes keep the numbering of the source.

T1: recombinant human LAG3 expressed with a C-terminal mouse IgG2a mFc tag (human)
T1 construct: Called dimeric; also called hLAG3-mFc; hLAG3 dimer
T1 chain: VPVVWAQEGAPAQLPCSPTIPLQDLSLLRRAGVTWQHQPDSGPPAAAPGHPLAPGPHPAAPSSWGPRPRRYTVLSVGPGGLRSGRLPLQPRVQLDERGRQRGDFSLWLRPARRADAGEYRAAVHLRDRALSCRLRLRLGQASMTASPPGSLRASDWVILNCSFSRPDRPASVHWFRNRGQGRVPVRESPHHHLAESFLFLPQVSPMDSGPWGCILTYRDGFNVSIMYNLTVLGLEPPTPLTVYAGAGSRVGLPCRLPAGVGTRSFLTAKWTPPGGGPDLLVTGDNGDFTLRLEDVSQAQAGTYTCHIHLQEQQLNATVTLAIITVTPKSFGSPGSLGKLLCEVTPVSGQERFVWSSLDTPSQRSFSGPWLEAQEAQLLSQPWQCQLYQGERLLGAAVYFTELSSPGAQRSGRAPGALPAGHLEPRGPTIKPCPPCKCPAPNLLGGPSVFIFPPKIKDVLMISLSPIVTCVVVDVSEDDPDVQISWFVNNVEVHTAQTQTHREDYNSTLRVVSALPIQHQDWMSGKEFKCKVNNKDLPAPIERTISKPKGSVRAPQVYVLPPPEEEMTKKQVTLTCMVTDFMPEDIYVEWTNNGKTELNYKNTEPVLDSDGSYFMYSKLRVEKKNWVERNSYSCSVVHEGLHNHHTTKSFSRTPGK

T2: human LAG3 expressed on HEK293 cells (human, UniProt P18627 23-525)
T2 construct: also called hLAG3; HEK293/hLAG3
T2 sequence: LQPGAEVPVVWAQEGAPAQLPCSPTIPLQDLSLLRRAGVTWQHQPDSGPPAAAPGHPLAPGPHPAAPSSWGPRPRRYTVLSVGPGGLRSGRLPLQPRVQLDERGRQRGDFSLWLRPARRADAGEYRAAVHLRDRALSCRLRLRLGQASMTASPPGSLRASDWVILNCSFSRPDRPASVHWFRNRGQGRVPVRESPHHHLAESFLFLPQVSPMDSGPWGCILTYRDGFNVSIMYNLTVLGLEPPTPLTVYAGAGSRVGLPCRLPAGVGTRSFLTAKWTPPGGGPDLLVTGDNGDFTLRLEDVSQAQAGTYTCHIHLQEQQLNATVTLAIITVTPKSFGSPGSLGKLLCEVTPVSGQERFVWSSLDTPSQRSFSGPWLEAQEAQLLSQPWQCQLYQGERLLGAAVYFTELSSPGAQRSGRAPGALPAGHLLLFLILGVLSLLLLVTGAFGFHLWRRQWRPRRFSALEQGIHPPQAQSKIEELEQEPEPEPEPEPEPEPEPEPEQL

B1: H4H15479P (antibody, human IgG4, V domains shown)
VH: QVQLQQWGAGLLNPSETLSLTCAVYGGAFSDYYWNWIRQPPGKGLEWIGEINHRGSTNYNPSLKSRVTISVDTSKNQFSLRMSSVTAADAAVYYCARGEDYDIWNGYYQEKWGQGTLVTVSS
VL: EIVLTQSPATLSLSPGERATLSCRASQSISTYLAWYQQKPGQAPRLLIYDASKRATGIPARFSGSGSGTDFTLTISSLEPEDFVVYYCHQRSNWPLTFGGGTKVEIK
B2: H4sH15482P (antibody, human IgG4 S228P, kappa)
heavy: QVQLVESGGGVVQPGRSLRLSCVASGFTFSSYGMHWVRQAPGKGLEWVAIIWYDGSNKYYADSVKGRFTISRDNSKNTQYLQMNSLRAEDTAVYYCASVATSGDFDYYGMDVWGQGTTVTVSSASTKGPSVFPLAPCSRSTSESTAALGCLVKDYFPEPVTVSWNSGALTSGVHTFPAVLQSSGLYSLSSVVTVPSSSLGTKTYTCNVDHKPSNTKVDKRVESKYGPPCPPCPAPPVAGPSVFLFPPKPKDTLMISRTPEVTCVVVDVSQEDPEVQFNWYVDGVEVHNAKTKPREEQFNSTYRVVSVLTVLHQDWLNGKEYKCKVSNKGLPSSIEKTISKAKGQPREPQVYTLPPSQEEMTKNQVSLTCLVKGFYPSDIAVEWESNGQPENNYKTTPPVLDSDGSFFLYSRLTVDKSRWQEGNVFSCSVMHEALHNHYTQKSLSLSLGK
light: EIVLTQSPATLSLSPGERTTLSCRASQRISTYLAWYQQKPGQAPRLLIYDASKRATGIPARFSGSGSGTGFTLTISSLEPEDFAVYYCQQRSNWPLTFGGGTKVEIKRTVAAPSVFIFPPSDEQLKSGTASVVCLLNNFYPREAKVQWKVDNALQSGNSQESVTEQDSKDSTYSLSSTLTLSKADYEKHKVYACEVTHQGLSSPVTKSFNRGEC
notes: H4sH = modified human IgG4 Fc; also called mAb1
B3: H4H15482P (antibody, human IgG4 S228P, kappa)
heavy: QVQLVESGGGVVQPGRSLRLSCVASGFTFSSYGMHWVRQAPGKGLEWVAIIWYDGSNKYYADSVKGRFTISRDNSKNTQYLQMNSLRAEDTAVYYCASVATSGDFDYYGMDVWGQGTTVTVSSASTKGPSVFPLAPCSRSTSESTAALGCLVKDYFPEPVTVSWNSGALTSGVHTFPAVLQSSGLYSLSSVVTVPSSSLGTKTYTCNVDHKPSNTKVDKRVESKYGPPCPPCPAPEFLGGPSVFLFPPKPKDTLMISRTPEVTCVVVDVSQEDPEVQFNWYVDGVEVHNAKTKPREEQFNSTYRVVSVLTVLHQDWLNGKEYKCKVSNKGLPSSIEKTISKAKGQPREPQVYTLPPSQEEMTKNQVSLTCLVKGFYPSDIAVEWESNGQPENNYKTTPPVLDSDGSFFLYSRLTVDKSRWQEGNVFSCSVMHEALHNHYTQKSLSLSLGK
light: B2 light
notes: H4H = human IgG4 Fc with S108P
B4: H4sH15498P2 (antibody, V domains shown)
VH: EVQLVESGGGLVQPGGSLRLSCAASGFTFTSYAMTWVRQAPGKGLEWVSDISGSGGRTYYADSVKGRFTISRDNSKNMLYLQMNILRAEDTAVYHCAKGTGQQVDLYNYYYALDVWGQGTTVTVSS
VL: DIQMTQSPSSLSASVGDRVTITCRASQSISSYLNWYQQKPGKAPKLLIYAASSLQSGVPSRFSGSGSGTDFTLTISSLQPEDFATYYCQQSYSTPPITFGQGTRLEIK
notes: H4sH = human IgG4 Fc with 2 or more amino acid changes as disclosed in US20140243504
B5: H4H15498P2 (antibody, human IgG4, V domains shown)
VH: B4 VH
VL: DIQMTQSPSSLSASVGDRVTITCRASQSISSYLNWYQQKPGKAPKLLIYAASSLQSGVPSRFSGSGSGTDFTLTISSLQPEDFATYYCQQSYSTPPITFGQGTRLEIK
notes: H4H = human IgG4 Fc with S108P hinge mutation
B6: H4sH14813N (antibody, human IgG4 S228P, kappa, V domains shown)
VH: QVQLQQWGAGLLKPSETLSLTCAVYGGSFSGYYWNWIRQPPGKGLEWVGEISHRGSTNYNPSLKSRVTISLDTSKNQFSLKLTSVTAADTAVYYCSRDEELEFRFFDYWGQGTLVTVSS
VL: EIVLTQSPATLSLSPGERATLSCRASQSVSSYLAWYQQKPGQAPRLLVYGASNRATGIPARFSGSGSGTDFTLTISSLEPEDFAFYYCQQRSNWPLTFGGGTKVEIKR
notes: H4sH = modified human IgG4 Fc
B7: H4H14813N (antibody, human IgG4, V domains shown)
VH: B6 VH
VL: B1 VL with I29V, T31S, I48V, D50G, K53N, V84A, V85F, H89Q
notes: as for B5
B8: H4H15483P (antibody, human IgG4, V domains shown)
VH: QVQLQQWGAGLLPPSETLSLICAVYGGSFSGYYWSWIRQPPGKGLEWIGEINHRGSTNYNPSLKSRATISVDTSKNQFSLKLSSVTAADTAVYYCSRGEDYYDSSGYSYYFDYWGQGTLVTVSS
VL: B1 VL with I29V, T31S, K53N, V84A, H89Q
notes: as for B5
B9: H4H17819P (antibody, human IgG4, V domains shown)
VH: EVQLVESGGGLVQPGGSLRLSCVASGFTFSLYAMTWVRQVPGKGLEWVSTISGSGGGTYYTDSVKGRFTISRDNSKNTLYLQMNSLRADDTAVFYCTKESTTGTYSYFYGMDVWGQGTTVTVSS
VL: DIQMTQSPSSLSASVGDRVTITCRASQTISSYLNWYQQKPGKAPKLLIYAASSLQSGVPSRFSGSGSGTDFTLTLSGLQPEDFATYYCQQSYSTPLTFGGGTKVEIK
notes: as for B5
B10: H4H17823P (antibody, human IgG4, V domains shown)
VH: EVQLLESGGGLVQPGGSLRLSCAASGFTFRSYAMSWVRQAPGKGLEWVSVISGGGGRTYYTDSVKGRFTISRDNSKSMLYLQMNSLRAEDTAIYYCAKERVTGIDHYYYGVDVWGQGTTVTVSS
VL: B9 VL with T28S, A51T, G66A, T74A, L75I, G77S, S93T
notes: as for B5
B11: H4H17826P2 (antibody, human IgG4, V domains shown)
VH: EVQLVESGGGLVQPGGSLRLSCAASGFTFSSYEMNWVRQAPGKGLEWVSYISSSGNTKDYAGSVKGRVTISRDNAKNLLYLQMNSLRAEDTAVYHCARDGGHYDILTGSMSYYYYALDVWGQGTTVTVSS
VL: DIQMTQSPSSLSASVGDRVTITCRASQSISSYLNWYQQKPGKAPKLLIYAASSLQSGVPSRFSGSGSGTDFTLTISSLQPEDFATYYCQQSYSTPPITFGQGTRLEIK
notes: as for B5

The binders below were run against T3, recombinant human LAG3 expressed with a C-terminal myc-myc-hexahistidine tag (human, UniProt P18627 29-450) (assay: SPR, mAb captured, 37 C).
T3 construct: also called hLAG3-mmh; hLAG3.mmh
Experimental: (§1) The BiaCore sensor surface was derivatized with either a polyclonal rabbit anti-mouse antibody (GE, # BR-1008-38) or with a monoclonal mouse anti-human Fc antibody (GE, # BR-1008-39) to capture approximately 50-85 RUs of anti-LAG3 monoclonal antibodies, expressed with either a mouse Fc or a human Fc, respectively. […] The binding of the LAG3 reagents to captured monoclonal antibodies was monitored for 4 minutes while their dissociation from the antibodies was monitored for 8 minutes in HBST running buffer (0.01 M HEPES pH 7.4, 0.15 M NaCl, 3 mM EDTA, 0.05% v/v Surfactant P20). Experiments were performed at 25° C. and 37° C. Kinetic association (kₐ) and dissociation (kd) rate constants were determined by processing and fitting the data to a 1:1 binding model using Scrubber 2.0c curve fitting software. Binding dissociation equilibrium constants (KD) and dissociative half-lives (t_{1/2}) were then calculated from the kinetic rate constants as: KD (M)=kd/kₐ and t_{1/2} (min)=[ln2/(60*kd)].

Binder	Kd [nM]	koff [s⁻¹]	kon [M⁻¹ s⁻¹]	t1/2 [h]
B1	0.0321	4.08e-05	1.27e+06	4.72
B2	1.82	–	–	0.377
B3	1.96	–	–	0.337
B4	0.185	7.08e-05	378000	2.72
B5	0.0783	2.96e-05	381000	6.5
B6	0.266	0.000154	578000	1.25
B7	0.284	0.000152	535000	1.27
B8	1.43	0.00111	774000	0.173
B9	0.552	0.000876	1.59e+06	0.22
B10	0.524	0.000924	1.76e+06	0.208
B11	1.99	0.00214	1.07e+06	0.09

Molecular target: T1, recombinant human LAG3 expressed with a …
Assay: SPR, mAb captured, 37 C
Experimental: as §1

Binder	Kd [nM]	koff [s⁻¹]	kon [M⁻¹ s⁻¹]	t1/2 [h]
B1	0.00399	1e-05	2.5e+06	≥ 19.2
B2	0.0316	–	–	1.17
B3	0.0891	–	–	2.13
B4	0.0194	1e-05	515000	≥ 19.2
B5	0.0217	1e-05	460000	≥ 19.2
B6	0.0295	0.000101	3.42e+06	1.91
B7	0.0274	0.000117	4.27e+06	1.65
B8	0.215	0.000298	1.38e+06	0.647
B9	0.317	0.000527	1.66e+06	0.365
B10	0.437	0.000585	1.34e+06	0.328
B11	0.277	0.000547	1.98e+06	0.352

These binders were tested against T2, human LAG3 expressed on HEK293 cells (assay: cell adherence assay, blocks A20 (mouse MHCII) cells on HEK293-hLAG3).
Experimental: Cells were plated into sterile Nunclon™ Delta 96-Well MicroWell™ Black Optical Bottom Plates (Thermo Scientific). The wells from the perimeter of the plate were not included in the assay design to avoid edge effects.
On the day of treatment, all antibodies were serially (1:3) diluted in RPMI media (without FBS or supplements added). The 9-point dilution ranged between 45 pM to 300 nM, with the last dilution point containing no mAb. […] While the plated HEK293-LAG3 cells were incubating with the test or control antibodies, non-adherent B-cells (RAJI or A20) were labeled with Calcein AM using the following procedure. RAJI and A20 suspension cells were harvested and centrifuged at 1,200 rpm for 5 minutes. Cell pellets were resuspended in 1×PBS and counted. Cells were washed with RPMI, and resuspended in RPMI at a concentration of 10⁶ cells per 1 ml. Cells were labeled by adding 5 μL of Calcein AM per 1 ml of cell suspension and incubated for 30 min at 37° C., at 5% CO₂. […] Subsequently, 10 μL of BD Pharmingen Fc Block (0.5 mg/mL) was added per 1 ml of the Calcein AM labeled cells, which were incubated at RT for 10 minutes. The Calcein AM-stained, Fc-blocked RAJI or A20 cells were resuspended in RPMI to a final concentration of 3×10⁶ cells per 1 ml and subsequently used in the adherence assay.
The labeled suspension cells were incubated with the HEK293 monolayer for 1 hour at 37° C., at 5% CO₂.

Binder	IC50 [nM]
B1	11
B2	3.8
B3	11
B4	21
B5	30
B6	10
B7	10
B8	16
B9	16
B10	9.4
B11	10
